Here are results for 4 molecules from publication PMC1450329.

Common to all, as to test: fluorescence anisotropy
For one series, the target named is T1, MutS-E38A (Escherichia coli, UniProt P23909 1-853, E38A).
T1 sequence: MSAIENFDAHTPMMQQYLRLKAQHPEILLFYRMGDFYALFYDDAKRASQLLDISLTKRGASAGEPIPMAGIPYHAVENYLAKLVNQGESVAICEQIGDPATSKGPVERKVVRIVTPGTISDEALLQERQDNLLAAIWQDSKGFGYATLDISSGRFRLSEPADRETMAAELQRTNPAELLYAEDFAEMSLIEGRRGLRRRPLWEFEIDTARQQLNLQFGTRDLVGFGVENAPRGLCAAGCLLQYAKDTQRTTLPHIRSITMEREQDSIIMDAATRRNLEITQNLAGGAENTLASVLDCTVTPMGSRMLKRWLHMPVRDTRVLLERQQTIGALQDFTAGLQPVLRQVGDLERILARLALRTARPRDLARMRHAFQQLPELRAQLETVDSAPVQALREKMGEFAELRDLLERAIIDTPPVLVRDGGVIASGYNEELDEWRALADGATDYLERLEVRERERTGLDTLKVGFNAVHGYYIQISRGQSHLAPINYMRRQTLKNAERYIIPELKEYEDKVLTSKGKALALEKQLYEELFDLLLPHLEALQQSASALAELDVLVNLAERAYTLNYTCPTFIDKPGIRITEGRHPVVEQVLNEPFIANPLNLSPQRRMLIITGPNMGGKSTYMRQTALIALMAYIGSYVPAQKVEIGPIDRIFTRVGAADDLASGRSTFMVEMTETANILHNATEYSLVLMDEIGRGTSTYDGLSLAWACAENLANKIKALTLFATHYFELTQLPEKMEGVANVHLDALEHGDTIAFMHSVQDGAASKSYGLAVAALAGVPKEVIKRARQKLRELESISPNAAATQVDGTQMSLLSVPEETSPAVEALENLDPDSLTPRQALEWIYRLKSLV

Series [1] has as its target T2, MutS wild-type (Escherichia coli, UniProt P23909 1-853).
T2 sequence: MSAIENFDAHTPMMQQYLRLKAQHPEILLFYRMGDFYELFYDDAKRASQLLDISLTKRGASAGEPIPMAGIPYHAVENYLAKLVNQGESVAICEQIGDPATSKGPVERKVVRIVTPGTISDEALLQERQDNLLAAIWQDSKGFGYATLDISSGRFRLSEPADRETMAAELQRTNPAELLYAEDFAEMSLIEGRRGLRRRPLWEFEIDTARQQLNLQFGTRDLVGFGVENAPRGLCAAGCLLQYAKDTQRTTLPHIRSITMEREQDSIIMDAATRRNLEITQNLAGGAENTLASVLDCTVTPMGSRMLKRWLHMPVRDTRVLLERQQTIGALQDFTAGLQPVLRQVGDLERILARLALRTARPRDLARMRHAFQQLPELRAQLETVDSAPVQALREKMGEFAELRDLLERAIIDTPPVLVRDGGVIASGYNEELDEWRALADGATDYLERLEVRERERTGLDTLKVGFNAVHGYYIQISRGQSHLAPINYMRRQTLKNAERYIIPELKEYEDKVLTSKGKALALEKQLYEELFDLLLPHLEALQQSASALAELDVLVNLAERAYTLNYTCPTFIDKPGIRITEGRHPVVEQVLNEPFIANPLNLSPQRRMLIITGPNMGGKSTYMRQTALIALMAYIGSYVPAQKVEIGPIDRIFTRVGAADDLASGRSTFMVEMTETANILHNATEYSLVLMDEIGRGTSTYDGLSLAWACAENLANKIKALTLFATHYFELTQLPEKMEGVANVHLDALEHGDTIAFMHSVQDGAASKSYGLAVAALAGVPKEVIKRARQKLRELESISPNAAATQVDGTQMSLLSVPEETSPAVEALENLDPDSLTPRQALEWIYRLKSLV

The target of series [2] is T2, MutS wild-type. The source holds these as a separate data set.

Like-named read-outs stand apart in the source and are kept apart here.

B1: CP-GpG/CT cisplatinated mismatch 30mer (dsDNA)
DNA 1: ACCTGTCTGGCAACACTGTCACCGTCGTAT
DNA 2: ATACGACGGTGACAGTGTTGCTAGACAGGT
modifications: cisplatin 1,2-GpG intrastrand cross-link at G9-G10 of strand 1
Usually Kd stands for the constant that tells how readily two partners part at equilibrium. A lower Kd goes with tighter binding. Turning to B1, the values for the Kd in the series with MutS-E38A and with MutS wild-type [1] were 200 ± 69 nM and 360 ± 46 nM, respectively.

B2: CP-GpG/CC cisplatinated homoduplex 30mer (dsDNA)
DNA 1: ACCTGTCTGGCAACACTGTCACCGTCGTAT
DNA 2: ATACGACGGTGACAGTGTTGCCAGACAGGT
modifications: cisplatin 1,2-GpG intrastrand cross-link at G9-G10 of strand 1
Consider B2, for which the dissociation constant Kd amounted to 600 ± 78 nM with MutS-E38A, 1340 ± 580 nM with MutS wild-type [2] and 1300 ± 65 nM with MutS wild-type [1].

B3: G/C homoduplex 30mer (dsDNA)
DNA 1: ACCTGTCTGGCAACACTGTCACCGTCGTAT
DNA 2: ATACGACGGTGACAGTGTTGCCAGACAGGT
As for B3, the values for the Kd with MutS-E38A and with MutS wild-type [2] were 610 ± 58 nM and 1080 ± 720 nM, respectively.

B4: G/T mismatch heteroduplex 30mer (dsDNA)
DNA 1: ACCTGTCTGGCAACACTGTCACCGTCGTAT
DNA 2: ATACGACGGTGACAGTGTTGCTAGACAGGT
With B4, the Kd was found to be 160 ± 58 nM with MutS-E38A and 100 ± 8 nM with MutS wild-type [1].
